Experiment [1] concerns the target 人PD-L1 on 293T-h-PDL1 cells (HEK293 stably expressing PD-L1) (human) (UniProt Q9NZQ7). Briefly: FACS, hybridoma supernatant on 293T-h-PDL1 cells.
The target in experiment [2] is 人PD-L1胞外区与人IgG1-FC的融合蛋白 (human) (UniProt Q9NZQ7). Nature of the experiment: FACS blocking: supernatant premixed with 500 ng PD-L1-hFc; competitor PD-1 on 293T-h-PD1 cells.
Experiment [3] concerns the target 人PD-L1 on 293T-h-PDL1 cells (HEK293 stably expressing PD-L1) (human) (UniProt Q9NZQ7). Briefly: FACS, antibody on 293T-h-PDL1 cells. (In general: In flow cytometry, cells or beads pass a laser one at a time.)

B1: 鼠抗体13C9 (antibody, from another filing, V domains shown)
VH: QVQLKQSGAGLVKPGASVKLSCKASGYIFTEYIIHWVKQRSGQGLEWIGWFYPGSDNIKYNEKFKDKATLTADKSSSTVYMELSRLTSEDSAVYFCARHETGYFFDYWGQGTTLTVSS
VL: DIVITQSPAIMSASPGEKVTMTCSASSSVSKMNWYQQKSGTSPKRWIYDTSKLASGVPSRFSGSGSGTSYSLTISSMEAEDAATYYCQQWSSNPLTFGSGTKLELKR
The term EC50 denotes the concentration that produces a half-maximal response. Broadly, the IC50 is the midpoint of a concentration-inhibition curve. Consider B1, for which the EC50 amounted to 0.44 µg/mL in experiment [1] and 0.49 µg/mL in experiment [3]. The IC50 in experiment [2] is 1.95 µg/mL.

B2: 鼠抗体8A2 (antibody, from another filing, V domains shown)
VH: QVQLKQSGPGLVAPSQSLSITCTVSGFSLTGYGVNWVRQPPGKGLEWLGKIWGDGITDYNSALKSRLSISKDNSKSQVFLKMNSLQTDDTARYYCARDVMDYWGQGTSVTVSS
VL: QIVLTQSPAIMSASPGEKVTMTCSASSSISYMHWYQQKPGTSPKRWIYDTSKLASGVPARFSGSESGTSYSLTISSMEAEDAATYYCHHRSPYPTFGAGTKLELK
With B2, the EC50 in experiment [1] was 0.336 µg/mL. The molecule further returned an IC50 in experiment [2] of 5.17 µg/mL.

B3: 鼠抗体15G10 (antibody, from another filing, V domains shown)
VH: QVQLKQSGPELVKPGASVKTSCKASGYTFTNYVVHWVKQNPGQGLEWIGYVNPNNDGTIFNEKFKDKAILTSDKSSSTAYMELSSLTSEDSAVYYCARSPFAHWGQGTLVTVSA
VL: QIVLTQSPASLTVSLGQRATISCSASESVDFYGTSLMQWFQQKPGQPPKLLVYTASNVDSEVPARFSGSGSGTDFSLNIHPVEEDDIAMYFCHQTRKVPYTFGGGTKLEIK
Molecule B3 showed an EC50 in experiment [1] of 1.45 µg/mL. The IC50 in experiment [2] was 4 µg/mL.

B4: 鼠抗体28B1 (antibody, from another filing, V domains shown)
VH: QVQLKQSGAELVKPGASVMLSCTASAFNIDDTYIHWVKQRPEQGLEWIGRIDPANGNTDYDPECQGKATITTDMSSNTAYLQLSSLTSEDTAVYFCARGLRLPGLVYWGRGTLVTVSA
VL: DIQMTQTTSSLSASLGDRVTISCRASQDISNYLNWYQQKPDGTVKLLIYYTSILYSGVPSRFSGSGSGTDYSLTINTLEEEDIATYFCQQGNTLPWTFGGGTKLEIIR
In experiment [1], B4 had an EC50 of 0.39 µg/mL. Besides, the IC50 in experiment [2] worked out at 2.31 µg/mL.

B5: 鼠抗体22B10 (antibody, from another filing, V domains shown)
VH: QVQLKQSGAELVKPGASVELSCTASGFNIEDTYLHWVNQRPEQGLEWIGRIDPANGNTYYDPKFQGKATITTDTSSNTAYLQLSRLTSEDTAVYYCARGLRLPGFPYWGQGTLVTVSA
VL: DIQMTQTPSSLSASLGDRVTISCRASQDISNYLSWYQQKPDGTVKLLIYYTSILHSGVPSRFSGSGSGTDYSLAISNLDQEDIATYFCQQGNTLPWTFGGGTKLEIKR
In the case of B5, in experiment [1], the EC50 turned out to be 0.517 µg/mL. In experiment [2], this molecule yielded an IC50 of 4.31 µg/mL.

The record behind these values is CN112759647A.
